Among the data in patent US20260274921A1 are EC50 values, retold here.

In general, EC50 refers to the concentration at which the effect is half-maximal.

The target of assay [1] is His-tagged CD47 extracellular domain (ECD) protein (Abclonal, CAT #RP01306) (human) (UniProt Q08722). In words: ELISA; pH 6.0. Particulars: Fc fusion.
Assay [2] shares this target. Briefly: ELISA; pH 7.2. The conditions noted are these: Fc fusion. (In general: In an ELISA, binding on a coated surface is turned into a signal by an enzyme label.)

Sequence of His-tagged CD47 extracellular domain (ECD) protein (Abclonal, CAT #RP01306) (human) (Q08722 19-139): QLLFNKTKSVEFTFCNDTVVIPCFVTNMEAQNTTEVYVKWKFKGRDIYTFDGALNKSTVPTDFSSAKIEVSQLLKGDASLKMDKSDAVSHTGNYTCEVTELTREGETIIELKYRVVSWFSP

Take SIN-304, SIRPαV2 K68H IgV-IgG1 Fc: the EC50 in assay [1] came to 0.772 nM.
SIN-301, SIRPαV2 K53H IgV-IgG1 Fc showed an EC50 in assay [1] of 1.35 nM.
“SIN-300, wild type SIRPαV2 IgV-IgG1 Fc fusion protein”: the EC50 in assay [1] turned out to be 0.667 nM; in assay [2], 3.84 nM.
As to SIN-303, SIRPαV2 Q52H IgV-IgG1 Fc, the EC50 came out at 0.627 nM in assay [1] and 6.92 nM in assay [2].
Regarding SIN-302, SIRPαV2 R69H IgV-IgG1 Fc, the values for the half-maximal effective concentration (EC50) in assay [1] and in assay [2] were 30 nM and 158 nM, respectively.
